{"source": "paper PMC2964404", "target": "Staphylococcus aureus enterotoxin C3, wild type (Staphylococcus aureus) (UniProt P0A0L5)", "assay": "ITC"}
{"substance": "variable domain of the murine T cell receptor (TCR) β chain 8.2 (domain or fragment)", "values": [{"measurement": "dH", "result": -4.88, "unit": "kcal/mol"}]}
